Data: publication PMC4907068, “Phosphatase ABI1 and okadaic acid-sensitive phosphoprotein phosphatases inhibit salt stress-activated SnRK2.4 kinase” (BMC Plant Biology, 2016)

Biological target: T1, GST-fused ABI1 (Arabidopsis thaliana, UniProt P49597 1-434)
T1 construct: ABI1, PP2C clade A phosphatase, Arabidopsis thaliana, TAIR At4g26080; also called GST-ABI1; recombinant ABI1; not shown: GST, N-terminal, kept
T1 sequence (looked up): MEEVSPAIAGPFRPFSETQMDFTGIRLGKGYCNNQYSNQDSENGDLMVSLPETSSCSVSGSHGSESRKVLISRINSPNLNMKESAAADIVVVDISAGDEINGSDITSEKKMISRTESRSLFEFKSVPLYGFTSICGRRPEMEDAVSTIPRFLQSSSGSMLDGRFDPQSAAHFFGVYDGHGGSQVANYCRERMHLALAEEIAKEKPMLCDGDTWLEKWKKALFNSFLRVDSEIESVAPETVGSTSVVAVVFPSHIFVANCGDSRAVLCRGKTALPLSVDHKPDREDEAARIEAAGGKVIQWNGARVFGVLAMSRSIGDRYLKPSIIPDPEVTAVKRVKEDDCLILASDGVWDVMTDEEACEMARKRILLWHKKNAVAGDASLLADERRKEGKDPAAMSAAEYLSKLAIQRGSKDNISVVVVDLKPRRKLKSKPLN
Assay: pull-down; GST-ABI1 or GST bound to Glutathione-Sepharose 4B beads, incubated with 10 ug recombinant SnRK2.4; 50 mM Tris-HCl pH 8.0, 50 mM NaCl, 0.01 % Triton X-100, 40 mM DTT; 45 min at RT, 5 washes; immunoblot with anti-SnRK2.4/SnRK2.10
Settings: both partners purified

B1: recombinant SnRK2.4 (enzyme, Arabidopsis thaliana, UniProt P43291 1-363, looked up)
chain: MDKYELVKDIGAGNFGVARLMKVKNSKELVAMKYIERGPKIDENVAREIINHRSLRHPNIIRFKEVVLTPTHLAIAMEYAAGGELFERICSAGRFSEDEARYFFQQLISGVSYCHAMQICHRDLKLENTLLDGSPAPRLKICDFGYSKSSLLHSRPKSTVGTPAYIAPEVLSRREYDGKMADVWSCGVTLYVMLVGAYPFEDQEDPKNFRKTIQKIMAVQYKIPDYVHISQDCKNLLSRIFVANSLKRITIAEIKKHSWFLKNLPRELTETAQAAYFKKENPTFSLQTVEEIMKIVADAKTPPPVSRSIGGFGWGGNGDADGKEEDAEDVEEEEEEVEEEEDDEDEYDKTVKEVHASGEVRIS
notes: SnRK2.4, SNF1-related protein kinase 2 of group 1, Arabidopsis thaliana, TAIR At1g10940
B1: binds.
